In patent US20190185532A1 (UNIVERSITY OF BIRMINGHAM, published 2019):

What was measured:
Experiment in all cases: flow cytometry on transfected HEK293T cells
[1] = biological target: T1, CD93^C136S (GFP tag, expressed in HEK293T) (human, UniProt Q9NPY3 22-652)
T1 construct: not shown: C-terminal GFP tag from vector pEGFP-N1
T1 sequence: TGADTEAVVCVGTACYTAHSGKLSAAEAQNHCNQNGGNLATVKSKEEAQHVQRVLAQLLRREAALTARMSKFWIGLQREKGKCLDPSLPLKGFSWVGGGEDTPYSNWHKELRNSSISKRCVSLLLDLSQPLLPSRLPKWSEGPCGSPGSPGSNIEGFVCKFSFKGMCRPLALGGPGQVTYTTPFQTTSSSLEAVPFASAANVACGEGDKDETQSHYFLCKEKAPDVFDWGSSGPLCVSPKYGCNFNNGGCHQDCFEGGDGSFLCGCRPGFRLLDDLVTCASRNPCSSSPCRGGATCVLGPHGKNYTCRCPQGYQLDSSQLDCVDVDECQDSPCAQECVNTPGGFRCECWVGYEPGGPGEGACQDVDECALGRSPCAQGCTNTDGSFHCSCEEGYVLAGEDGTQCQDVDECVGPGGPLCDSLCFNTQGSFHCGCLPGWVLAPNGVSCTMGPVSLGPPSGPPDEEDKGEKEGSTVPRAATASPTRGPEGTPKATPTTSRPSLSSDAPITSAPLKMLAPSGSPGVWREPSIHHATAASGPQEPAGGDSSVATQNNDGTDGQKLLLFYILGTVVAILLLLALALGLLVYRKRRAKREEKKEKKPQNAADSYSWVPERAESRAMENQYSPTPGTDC

[2] = biological target: T2, CLEC14A^C138S (GFP tag, expressed in HEK293T) (human, UniProt Q86T13 22-490)
T2 construct: not shown: C-terminal GFP tag from vector pEGFP-N1
T2 sequence: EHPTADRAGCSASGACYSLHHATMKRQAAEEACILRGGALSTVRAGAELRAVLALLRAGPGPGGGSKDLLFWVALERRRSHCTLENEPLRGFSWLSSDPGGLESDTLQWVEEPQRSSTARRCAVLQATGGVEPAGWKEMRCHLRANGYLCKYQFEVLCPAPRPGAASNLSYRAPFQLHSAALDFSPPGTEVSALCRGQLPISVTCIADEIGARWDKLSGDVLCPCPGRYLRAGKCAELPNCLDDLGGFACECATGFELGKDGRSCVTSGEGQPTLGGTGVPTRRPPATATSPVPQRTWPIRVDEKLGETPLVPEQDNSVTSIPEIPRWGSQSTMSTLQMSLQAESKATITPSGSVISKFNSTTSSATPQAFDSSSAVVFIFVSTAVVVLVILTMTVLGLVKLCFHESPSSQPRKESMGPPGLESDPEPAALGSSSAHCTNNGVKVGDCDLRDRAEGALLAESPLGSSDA

[3] = biological target: T3, CD93^C104S (GFP tag, expressed in HEK293T) (human, UniProt Q9NPY3 22-652)
T3 construct: not shown: C-terminal GFP tag from vector pEGFP-N1
T3 sequence: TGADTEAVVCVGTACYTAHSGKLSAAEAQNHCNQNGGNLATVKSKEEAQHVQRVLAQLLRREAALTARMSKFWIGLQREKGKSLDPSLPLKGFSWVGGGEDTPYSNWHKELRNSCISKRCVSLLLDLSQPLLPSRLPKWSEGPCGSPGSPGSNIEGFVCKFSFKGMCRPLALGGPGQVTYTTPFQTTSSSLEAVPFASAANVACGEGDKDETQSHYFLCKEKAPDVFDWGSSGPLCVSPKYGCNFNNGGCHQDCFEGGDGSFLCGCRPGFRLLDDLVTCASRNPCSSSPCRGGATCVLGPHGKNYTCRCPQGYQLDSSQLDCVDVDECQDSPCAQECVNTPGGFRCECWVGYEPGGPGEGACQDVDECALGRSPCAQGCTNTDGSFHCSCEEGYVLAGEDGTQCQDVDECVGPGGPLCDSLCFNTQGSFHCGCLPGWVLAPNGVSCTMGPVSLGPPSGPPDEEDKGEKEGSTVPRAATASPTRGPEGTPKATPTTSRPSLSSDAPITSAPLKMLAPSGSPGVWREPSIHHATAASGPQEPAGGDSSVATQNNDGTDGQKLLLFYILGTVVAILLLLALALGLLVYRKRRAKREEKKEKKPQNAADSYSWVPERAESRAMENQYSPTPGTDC

[4] = biological target: T4, CLEC14A^C103S (GFP tag, expressed in HEK293T) (human, UniProt Q86T13 22-490)
T4 construct: not shown: C-terminal GFP tag from vector pEGFP-N1
T4 sequence: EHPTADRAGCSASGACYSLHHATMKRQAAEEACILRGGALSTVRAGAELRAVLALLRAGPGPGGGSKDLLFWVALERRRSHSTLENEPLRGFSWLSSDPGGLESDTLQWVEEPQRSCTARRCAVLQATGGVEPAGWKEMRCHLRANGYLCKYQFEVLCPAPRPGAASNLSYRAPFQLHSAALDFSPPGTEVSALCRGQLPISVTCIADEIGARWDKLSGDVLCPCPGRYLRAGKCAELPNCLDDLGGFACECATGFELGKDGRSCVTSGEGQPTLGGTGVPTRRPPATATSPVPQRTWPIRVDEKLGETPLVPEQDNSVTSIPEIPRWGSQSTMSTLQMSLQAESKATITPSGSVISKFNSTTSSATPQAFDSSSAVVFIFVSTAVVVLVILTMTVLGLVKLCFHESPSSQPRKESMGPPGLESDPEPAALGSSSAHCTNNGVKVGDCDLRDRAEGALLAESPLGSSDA

binding result [1]: no binding (tested: 20 µg/mL)
binding result [2]: no binding (tested: 20 µg/mL)
binding result [3]: no binding (tested: 20 µg/mL)
binding result [4]: no binding (tested: 20 µg/mL)
B1: biotinylated MMRN2^495-674 (human, expressed in E. coli with a His tag and a BirA tag) (ligand)
chain: QKLYLDLDVIREGQRDATRALEETQVSLDERRQLDGSSLQALQNAVDAVSLAVDAHKAEGERARAATSRLRSQVQALDDEVGALKAAAAEARHEVRQLHSAFAALLEDALRHEAVLAALFGEEVLEEMSEQTPGPLPLSYEQIRVALQDAASGLQEQALGWDELAARVTALEQASEPPRP
modifications: biotin on the BirA tag
notes: Used for staining of transfected HEK293T cells in flow cytometry, detected with streptavidin-PE; not shown: BirA tag and His tag (vector pET23a)
